Data: patent US20190367619A1 (ARGENX, published 2019)
Positions count from the first letter of the chain named.

T1: human galectin-10-His (recombinant human galectin-10 with TEV-cleavable N-terminal His-tag) (human)
T1 construct: SEC-MALLS: dimer in solution; also called Gal10-His; humanGal10-His
T1 chain: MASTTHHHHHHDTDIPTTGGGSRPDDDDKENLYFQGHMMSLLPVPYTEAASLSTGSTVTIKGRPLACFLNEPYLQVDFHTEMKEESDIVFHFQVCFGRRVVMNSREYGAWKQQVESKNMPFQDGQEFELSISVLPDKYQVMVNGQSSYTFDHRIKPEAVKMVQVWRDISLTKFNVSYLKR

T2: TEV-cleaved wild-type recombinant human galectin-10 (soluble, in Fab complexes, or as recombinant galectin-10 … (human, UniProt Q05315 1-142))
T2 sequence: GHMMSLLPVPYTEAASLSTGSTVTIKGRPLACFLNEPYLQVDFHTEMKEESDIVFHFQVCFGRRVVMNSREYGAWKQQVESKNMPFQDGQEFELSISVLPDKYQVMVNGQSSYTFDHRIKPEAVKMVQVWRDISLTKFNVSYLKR

B1: 6A08 mouse IgG1 (antibody, V domains shown)
VH: QVQLVESGGGLVQPGGSLRLSCAASGFTFSSYAMSWVRQAPGKGPEWVSAINRGGGSTYYADSVKGRFTISRDNAKNTLYLQMNSLKPEDAAVYYCATPGDRLWYYRYDYWGQGAQVTVSS
VL: QTVVTQEPSLSVSPGGTVTLTCGLSSGSVTSSNYPGWYQQTPGQAPRLLIYNTNSRYSGVPNRFSGSISGNKAALIISGAQPEDEADYHCALNRVRGTYRVFGGGTHLTVL
notes: also called 6A08 mIgG1
B2: 2C07 mouse IgG1 (antibody, V domains shown)
VH: ELQLVESGGGLVQPGGSLRLSCAASGFTFSSYAMSWVRQAPGKGLEWVSNINSGGGSTGYADSVKGRFTISRDNAKNTLYLQMNSLKPEDMAVYYCAKYLRTYYPNAAFGMDYWGKGTLVTVSS
VL: QAVLTQPSAVSVSLGQTARITCQGGNFGRYYASWYQQKPGQAPVLVIYRDSERPSGIPERFSGSSSGDTATLTISGAQAEDEADYYCQSGRSSDNAVFGGGTHLTGL
notes: VH on mouse IgG1 heavy chain constant domains (CH1-CH2-CH3), VL on mouse lambda light chain constant domain; also called 2C07 mIgG1
B3: 6E10 mouse IgG1 (antibody, V domains shown)
VH: QLQLVESGGGLVQPGGSLRLSCAASGFTFSSYWMYWVRQAPGKGLEWVSAINTGGGSTYYADSVKGRFTISRDNAKNTLYLQMNSLKPEDTALYYCARAGSGVAGTGYDYWGQGTQVTVSS
VL: B2 VL with A2P, T5N, R29Y, A32V, E52G, R91S, G106V
notes: also called 6E010; 6E10 mIgG1
B4: 6F06 mouse IgG1 (antibody, V domains shown)
VH: QVQLVESGGGLVQPGGSLRLSCAASEFTFSRYSMSWVRQAPGKGLEWVSTINSGGGSTSYVDSVKGRFTISRDNAKNTLYLQMNSLKPEDTAVYYCTKSQGGISFSTQYGMDYWGKGTLVTVSS
VL: B2 VL with Q1N, A2F, V3M, S33N, R49K, A83S, R91S, S92V, T105A, G106V
notes: also called 6F06 mIgG1
B5: 6B06 mouse IgG1 (antibody, V domains shown)
VH: QVQRQESGPGLVKPSQTLSLTCTVSGGSITTNYYSWSWIRQPPGKGLEWIGYIAYSGSTSYSPSLKSRTSISRDTSNNQFSLQLSSVTPEDTAVYYCARSRSSPTTFGMDYWGKGTLVTVSS
VL: B2 VL with Q1S, A2S, V3A, A32V, Q36T, R49Q, S55T, R91T, A96I, G106V
notes: also called 6B06 mIgG1

Target: T1, human galectin-10-His (recombinant …)
Assay: BLI tandem on galectin-10-His; competitor: saturating 6A08 mIgG1 (10 ug/mL)
Description: (§1) In order to identify the galectin-10 binding sites of the different clones, an epitope mapping method (TANDEM), using the BLI technology, was established. Briefly, the galectin-10-His was captured on anti-HIS 1K sensor tips, before incubation with an excess of one antibody (called the “saturating” antibody) then directly transferred to a solution containing the “competitor” antibody at a suboptimal concentration. If the “saturating” and the competitor antibody bind to the same binding sites, no binding of “competitor” will be detected (expressed in nm shift).

First: B1
Second: B2
The “binding signal (nm)” value of the first is lower: -0.04 nm for the first, -0.01 nm for the second.

Going from B3 to B4, the “binding signal (nm)” value falls from 0.04 nm to 0 nm.

For B5, the “binding signal (nm)” value was 0.02 nm.

Target: T1, human galectin-10-His (recombinant …)
Assay: BLI tandem on galectin-10-His; buffer in place of the saturating antibody
Description: as §1

Compared with B1, B2 is lower in “binding signal (nm)” value: 1.08 nm for the first, 0.8 nm for the second.

Going from B3 to B4, the “binding signal (nm)” value falls from 1.38 nm to 1.22 nm.

With B5 the “binding signal (nm)” value was 0.98 nm.

Target: T1, human galectin-10-His (recombinant …)
Assay: BLI tandem on galectin-10-His; competitor: saturating 1D11 mIgG1 (10 ug/mL)
Description: as §1

Going from B1 to B2, the “binding signal (nm)” value falls from 0.05 nm to 0.04 nm.

Going from B3 to B4, the “binding signal (nm)” value falls from 0.1 nm to 0.06 nm.

B5 was tested, and the “binding signal (nm)” value was 0.07 nm.

Target: T1, human galectin-10-His (recombinant …)
Assay: BLI tandem on galectin-10-His; competitor: saturating 6F06 mIgG1 (10 ug/mL)
Description: as §1

Compared with B1, B2 is lower in “binding signal (nm)” value: 0.05 nm for the first, 0.04 nm for the second.

Going from B3 to B4, the “binding signal (nm)” value falls from 0.07 nm to 0.04 nm.

B5 was tested, and the “binding signal (nm)” value was 0.05 nm.

Target: T1, human galectin-10-His (recombinant …)
Assay: SPR Biacore T3000, mouse IgG1 captured by anti-mouse Fc, galectin-10-His as analyte
Description: The binding capacity of the mouse IgG1 antibodies to galectin-10 was analyzed on Biacore T3000. For this purpose, a capture approach was set up. A CM5 Chip was coated with polyclonal anti-mouse Fc at 8000 RU, then a fixed concentration of the mouse IgG1 antibody panel (1.5 μg/mL), diluted in HBS-EP pH7.4, was captured to reach a binding signal around 150 RU. Finally, a serial dilution of galectin-10-His (serial dilution, 1 over 2 from 5 μg/mL) diluted in HBS-EP pH7.4 was injected. Raw data were analyzed via BIA evaluation software with a blank subtraction (4-3). The kd/KD and Rmax of each mAb to galectin-10-His was determined using the Fit Kinetics simultaneous ka/kd/Binding with mass transfer/Local Rmax on BIA evaluation software.

Going from B1 to B2, the Kd falls from 1 nM to 0.5 nM (2-fold).

B3 and B4 are within 1.5-fold of each other in Kd: 0.5 nM for the first, 0.7 nM for the second.

With B5 the Kd was 0.3 nM.

Compared with B1, B2 is 1.9-fold lower in koff: 0.00067 s⁻¹ for the first, 0.00036 s⁻¹ for the second.

Going from B3 to B4, the koff rises from 0.00082 s⁻¹ to 0.00487 s⁻¹ (5.9-fold).

B5 showed a koff of 0.00306 s⁻¹.

Target: T1, human galectin-10-His (recombinant …)
Assay: BLI tandem on galectin-10-His; isotype control as saturating antibody (10 ug/mL)
Description: as §1

Compared with B1, B2 is lower in “binding signal (nm)” value: 1.04 nm for the first, 0.73 nm for the second.

First: B3
Second: B4
The “binding signal (nm)” value of the first is higher: 1.34 nm for the first, 1.15 nm for the second.

With B5 the “binding signal (nm)” value was 0.94 nm.

Target: T1, human galectin-10-His (recombinant …)
Assay: BLI tandem on galectin-10-His; competitor: saturating 6A05 mIgG1 (10 ug/mL)
Description: as §1

Going from B1 to B2, the “binding signal (nm)” value falls from 0.05 nm to 0.04 nm.

First: B3
Second: B4
The “binding signal (nm)” value of the first is higher: 0.09 nm for the first, 0.05 nm for the second.

With B5 the “binding signal (nm)” value was 0.06 nm.

Target: T1, human galectin-10-His (recombinant …)
Assay: BLI tandem on galectin-10-His; competitor: saturating 1C09 mIgG1 (10 ug/mL)
Description: as §1

B1 and B2 are the same in “binding signal (nm)” value: 0 nm for the first, 0 nm for the second.

Compared with B3, B4 is lower in “binding signal (nm)” value: 0.03 nm for the first, 0 nm for the second.

With B5 the “binding signal (nm)” value was 0.01 nm.

Target: T1, human galectin-10-His (recombinant …)
Assay: BLI tandem on galectin-10-His; competitor: saturating 2C07 mIgG1 (10 ug/mL)
Description: as §1

Going from B1 to B2, the “binding signal (nm)” value falls from 0.05 nm to 0.03 nm.

First: B3
Second: B4
The “binding signal (nm)” value of the first is higher: 0.06 nm for the first, 0.03 nm for the second.

For B5, the “binding signal (nm)” value was 0.04 nm.

Target: T1, human galectin-10-His (recombinant …)
Assay: BLI tandem on galectin-10-His; competitor: saturating 6B06 mIgG1 (10 ug/mL)
Description: as §1

Compared with B1, B2 is lower in “binding signal (nm)” value: 0.05 nm for the first, 0.04 nm for the second.

First: B3
Second: B4
The “binding signal (nm)” value of the first is higher: 0.04 nm for the first, 0.03 nm for the second.

In the case of B5, the “binding signal (nm)” value is reported as 0.03 nm.

Target: T1, human galectin-10-His (recombinant …)
Assay: BLI tandem on galectin-10-His; competitor: saturating 2F09 mIgG1 (10 ug/mL)
Description: as §1

First: B1
Second: B2
The “binding signal (nm)” value of the first is higher: 0 nm for the first, -0.01 nm for the second.

B3 and B4 are the same in “binding signal (nm)” value: 0 nm for the first, 0 nm for the second.

For B5, the “binding signal (nm)” value was 0 nm.

Target: T2, TEV-cleaved wild-type recombinant human …
Assay: cell-based or functional assay

B1 and B2 cannot be ordered by “100% Solubilization of CLC (Conc uM)” value: greater than 10 µM for the first, greater than 2.2 µM for the second.

B3 and B4 are within 1.5-fold of each other in “100% Solubilization of CLC (Conc uM)” value: 10.5 µM for the first, 7.57 µM for the second.

In the case of B5, the “100% Solubilization of CLC (Conc uM)” value is reported as greater than 10 µM.

Target: T1, human galectin-10-His (recombinant …)
Assay: BLI tandem on galectin-10-His; competitor: saturating 4E08 mIgG1 (10 ug/mL)
Description: as §1

B1 and B2 are the same in “binding signal (nm)” value: -0.05 nm for the first, -0.05 nm for the second.

Going from B3 to B4, the “binding signal (nm)” value falls from 0.1 nm to 0.02 nm.

For B5, the “binding signal (nm)” value was 0.03 nm.

Target: T1, human galectin-10-His (recombinant …)
Assay: BLI tandem on galectin-10-His; competitor: saturating 6E10 mIgG1 (10 ug/mL)
Description: as §1

First: B1
Second: B2
The “binding signal (nm)” value of the first is lower: -0.05 nm for the first, -0.04 nm for the second.

First: B3
Second: B4
The “binding signal (nm)” value of the first is higher: 0 nm for the first, -0.03 nm for the second.

For B5, the “binding signal (nm)” value was -0.02 nm.

Target: T1, human galectin-10-His (recombinant …)
Assay: ELISA, mouse IgG1 on coated galectin-10-His (0.2 ug/mL)
Description: In a similar setup to that used during the characterization of the scFv-human Fc molecules, the relative binding affinities of the 10 mouse IgG1 antibodies were analyzed by ELISA. A Maxisorp plate was coated overnight with 0.2 μg/mL of galectin-10-His. Then a serial dilution of each clone (from 100 nM, dilution 1/4, 12 points of dilutions) was incubated on coated galectin-10. After several washing steps, detection of the bound mouse IgG1 was carried out with an anti-mouse Fc-HRP antibody. Absorbance was measured at 450 nm (reference at 620 nm) with Tecan instrument. A mouse IgG1 isotype control was used as negative control. A polyclonal anti-galectin-10 antibody was used as positive control for the coating of galectin-10. The raw data (OD values) were plotted on GraphPad Prism 7.01. The EC50 values for each antibody, calculated with a non-linear regression (log(agonist) vs. response Variable slope (four parameters)), are reported in Table 7 below.

First: B1
Second: B2
The Bmax of the first is higher: 3.2 OD for the first, 2.95 OD for the second.

Compared with B3, B4 is higher in Bmax: 2.4 OD for the first, 2.93 OD for the second.

B5 was tested, and the Bmax was 3.28 OD.

First: B1
Second: B2
The EC50 of the first is 1.9-fold higher: 0.15 nM for the first, 0.08 nM for the second.

Going from B3 to B4, the EC50 falls from 0.17 nM to 0.08 nM (2.1-fold). The second is the more potent here.

B5 was tested, and the EC50 was 0.08 nM.
